Laboratory results from article PMC2753740.

Molecular target: cp283Δ8, cp283 with an eight-amino acid deletion in the loop connecting the native termini (Candida antarctica)
Test: SEC

Question: Which stoichiometry N does the source give for “cp283Δ8, cp283 with an eight-amino acid deletion in the loop connecting the native termini (enzyme)” here?
Answer: 3
